This is an account of results in paper doi:10.1101/2020.04.27.064493 (bioRxiv, 2020).

The labels stand for the following.
B1: bovine DNMT1 RFTS domain (residues 349-594) (domain or fragment)
chain: PKCTECLQYLDDPELRYEQHPPDAVEEIQILTNERLSIFDANESGFESYEDLPQHKLTCFSVYCKRGHLCPIDTGLIEKDVELLFSGSAKPIYEDDPSPEGGINGKNFGPINEWWIAGFDGGEKALLGFSTSFAEYILMDPSPEYAPLFSVMQEKIYISKIVVEFLQSNPDSTYEDLINKIETTVPPCMLNLNRFTEDSLLRHAQFVVEQVESYDRAGDSDEQPIFLSPCMRDLIKLAGVTLGKRR
B2: H3_(1-24)K9me3/K18C/K23C peptide (peptide)
peptide: not shown
modifications: trimethyl-lysine at K9

One assay deals with G76C-mutated ubiquitin (UniProt P0CG48 1-76, G76C). Briefly: crystal structure.
The target of assay [1] is B1. Description: crystal structure.

As for B1, the binding result with G76C-mutated ubiquitin is reported as “binds”. Consider B2, for which the binding result (in the assay with G76C-mutated ubiquitin; in assay [1]) was “binds” throughout.
